Results: publication PMC5961234

Biological target: human alpha-thrombin (Homo sapiens, UniProt P00734;P00734 328-363;364-622)
Assay: BLI

B1: T4W (structured_DNA)
DNA: GGTTGGTGTGGTTGG
modifications: T4 = W, 5-(indolyl-3-acetyl-3-amino-1-propenyl)-2'-deoxyuridine (written T)
Work on B1 yielded a Kd of 1 nM.

B2: T12W (structured_DNA)
DNA: GGTTGGTGTGGTTGG
modifications: T12 = W, 5-(indolyl-3-acetyl-3-amino-1-propenyl)-2'-deoxyuridine (written T)
B2 gave a Kd of 1.3 nM.

B3: T7W (structured_DNA)
DNA: GGTTGGTGTGGTTGG
modifications: T7 = W, 5-(indolyl-3-acetyl-3-amino-1-propenyl)-2'-deoxyuridine (written T)
B3 gave a Kd of 1.7 nM.

B4: TBA (structured_DNA)
DNA: GGTTGGTGTGGTTGG
modifications: none
With B4 the Kd was 2.8 nM.

B5: T4K (structured_DNA)
DNA: GGTTGGTGTGGTTGG
modifications: T4 = K, 5-(methyl-3-acetyl-3-amino-1-propenyl)-2'-deoxyuridine (written T)
B5 gave a Kd of 0.39 nM.

B6: T4WT12W (structured_DNA)
DNA: GGTTGGTGTGGTTGG
modifications: T4 and T12 = W, 5-(indolyl-3-acetyl-3-amino-1-propenyl)-2'-deoxyuridine (written T)
With B6 the Kd was 0.31 nM.

B7: T3W (structured_DNA)
DNA: GGTTGGTGTGGTTGG
modifications: T3 = W, 5-(indolyl-3-acetyl-3-amino-1-propenyl)-2'-deoxyuridine (written T)
For B7, the Kd was 3.9 nM.
